# B1: TPR t1 (parent)
# chain: GACCAAUCUGCCCUCAGAGCUCGAGAACAUCUUCGGAUGCAGAGGAGGCAGGCUUCGGUGGCGCGAUAGCGCCAACGUCCUCAACCUCCAAUGCAUCCCACCACAUGAUGAUGCCUGAAGAGCCUUGGUUUUUUG
# Variants of: B1
# Experiment: polymerase ribozyme fitness, log enrichment relative to wild type (log ratio); higher = more active; in vitro selection for triplet polymerase activity
# Outline: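 Genotype fitness is the logarithm of its enrichment divided by wild-type enrichment, using inverse-variance-weighted averages of replicates. That logarithm is base 2. Enrichment was measured by Illumina sequencing of input and output libraries from one triplicate in vitro selection round, with frozen incubation at −7 °C, on PCR-built, transcribed mutant libraries of each subunit of a heterodimeric triplet polymerase ribozyme, retaining genotypes with ≥10 input reads and ≥1 read per output.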
row,Variant,polymerase ribozyme fitness (log ratio)
1,GACAAAUCUGCCCUCAGAGCUCGAGAACAUCUUCGCAUGCAGAGGAGGCAGGCUUCGGUGGCGCUAUAGCGCCAACGUCCUCAACCUCCAAUGCAUCCCACCAUAUGAUGAUGCCUGAGGUGCCUUGUAUUUUUG [C4A G36C G65U C104U A119G A121U G128U U129A],-6.35
2,GACGAAUGUGACCGCAGAGCUCGAGAACAUCUUCGGAUGCAGAGGAGGCAGGCUUCGGUGGCGCGAUACCGCCAACGUCCUCAACCUCCAAUGCAUCCCACCACAUGAUGAUGCCUGAAGAGCUUUGGUUUUUUG [C4G C8G C11A U14G G69C C124U],-2.77
3,GACGAAUCUGCCCUCAGAGCUCGAGAACAUCUUCGGAUGCCGAGGAGGCAGGCUUCGGUGGCGCGAUAGCGCCAACAUCCUCAACCUCCAAUGCCUCCCACCACAUGAUGAUGCCUGAAGAGCCUUGGUUUUUUG [C4G A41C G77A A95C],-3.4
4,GACAAAUCUGCCCUCAGAGCGCGAGAACAUCUUCGGAUGCAGAUGAGGCAGGCUUCGGUGGCUCGAUAGCGCCAACGUCCUAAACCUCCAAUGCAUCCCACCACAUGAUGAUGCCUGAAGAGCGUUGGUUUUUUG [C4A U21G G44U G63U C82A C124G],-4.8
5,GACGAAUCUGCCCUCAGAGCUCGAGAACAUCUUCGGAUGCAGAGGAGGCAGGCUUCGGUGGCGCGAUAGCGCCAACGUCCUCAACCUCCAAUGCAUCCCACCACAUGAUGCUGCCUGAAGAGCCUUGGUUUUUUG [C4G A111C],-0.384
6,GACGAAUGUGCCCUCAGAGCUCGAGAACAUCUUCGGAUGGAGAGGAGGCAGGCUUCGGUGGCGCGAUAGCGCCAACGUCCUCAACCUCCAAUGCAUCCCACCACAUGAUGAUGCCUGAAGAGCUUUGGUUUUUUG [C4G C8G C40G C124U],0.299
7,GACGAAUGUGCCCUCAGAGCUCGAGGACAUCUUCGGAUGCAGAGGAGGCAGGCUUCGGUGGCGCGAUAGCGCCAACGUCCUCAACCUCCAAUGCAUCCCACCACAUGAUGAUGCCUGAAUAGCCUUGGUUUUUUG [C4G C8G A26G G120U],-0.664
8,GACAAAUCUGCCCUCAGAGCUCGAGAACAUCUUCGGAUGCAGAGGAGGCAGGCUUCGGUGACGCGAUAGCGCCAACGUCCUCAACCUCCAAUGCAUCCCACCACAUGAUGAUGCCUGAAGAGCCUUGGUUUUUUG [C4A G61A],-1.34
9,GACAAAUCUGCCCUCAGAGCUCGAGAACAUCUUCGGAUGCAGAGGAGGCAGGCUUCGGUGUCGCGAUAGCGCCAACGUCCUCAACCUCCAAUGCAUCCCACCACAUGAUGAUGCCUGAAGAGCCUUGGUUUUUUG [C4A G61U],-1.15
10,GACGAAUUUGCACUCAGAGCUCGAGAACAUCUUCGGAUGCAAAGGAGGCAGGCUUCGGUGGCGCGAUAGCACCAACGUCCUCAACCUCCAAUGCAUCCCACCACAAGAUGAGGCCUGAAGAGCCUUGGUUUUUUG [C4G C8U C12A G42A G71A U106A U112G],-4.39
11,GACAAAUCUGCCCUCAGAGCUCGAGAACAUCUUCGGAUGCAGAGGAGGCAGGCUUCGGUAGCGCGAUAGCGCCAACGUCCUCAACCUCCAAUGCAUCCCACUACAUGAUGAUGCCUGUAGAGCCUUGGUUUCUUG [C4A G60A C102U A118U U132C],-4.76
12,GACAAAUCUGCCCUCAGAGCUCGAGAACAUCUUCGGAUGCAGAGGAGGCAGGCUUCGGUGGCGCGAUAGCGCCAACGUCCUCAACCUCCAAUGCAUCCCACCACAUGAUGAAGCCUGAAGAGCCUUGGUUUUUUG [C4A U112A],0.26
13,GACAAAUCUGCCCUCAGAGCUCGAGAACAUCUUCGGAUGCAGAGGAGGCAGGCUUCGGUGGCGCGAUAGCGCCAACGUCCUCAACCUCCAAUGCAUCCCACCACAUGAUGAUGCCUGAAGAGCCUUGGUGUUUUG [C4A U130G],-1.85
14,GACAAAACUGCCCUCAGAGCUCGAGAACAUCUUCGGAUGCAGAGGAGGCAGGCUUCGGUGACGCGAUAGCGCCAACGUCCUCAACCUCCAAUGCAUCCCACCACAUGAUGAUGCCUGAAGAGCCUUGGUUUUUUG [C4A U7A G61A],-0.369
15,GACAAAUCUGCCCUCAGAGCUCGAGAACAUCUUCGGAUGCAGAGGAGGCAGGCUUCGGUGGCGCGAUAGCGCCAACGUCCUCAACCUCCAAUGCAUCCCACCACAUGAUGAUGCCUGAAGAGCUUUGGUUUUUUG [C4A C124U],-1.17
16,GACGAAUCUGCCCUCAGAGCUCGAGAACAUCUUCGGUUGCAGAGGAGGCAGGCUUCGGUGGCGCGAUAGCGCCAACGUCCUCAACCUCCCAUGCAUCCCACCACAUGAUGAUGCCUGAAGAGCCUUGGUUUUUUG [C4G A37U A90C],-2.66
17,GACAAAUCUGCCCUCAGAGCUCGAGAACAUCUUCGGAUGCAGAGGAGGCAGGCUUCGGUGGCGCGAUAGCGCCAACGUCCUCAACCUCCAAUGCAUCCCACCACAUGAUGAUGCCUGAACAGCCUUGGUUUUUUG [C4A G120C],-0.842
18,GACGAAUCUGCGCUCAGAGCUCGAGAACAUCUUCGGAUGCAGAGGAGGCAGGCUUCGGUGCCGCGAUAGCGCCAACGUACUAAACCUCCAAUGCAUCCCACCACAUGAUGAUGCCUGAAGAGCUUUGGUUUUUUG [C4G C12G G61C C79A C82A C124U],-3.71
19,GACAAAUCUGCCCUCAGAGCUCGAGAACAUCUUCGGAUGCAGAGGAGGCAGGCUUCGGUGGCGCGAUAGCGCCAACGUCCUCAACCUCCAAUGCAUCCCACCACAUGAUGAUUCCUGAAGAGCCUUGGUUUUUUG [C4A G113U],-3.74
20,GACGAAUCUGCCCUCAGCGCUUGAGAACAUCUUCGGAUGCAGAGGAGGCAGGCUUCGGUGGCGCGAUAGCGGCAACGUCCUCAACCUCCAAUUCAUCCCACCACAUGACGAUGCCUCAAGAGCCUUGGUUUUUUG [C4G A18C C22U C72G G93U U109C G117C],-5.69
21,GACAAAUCUGCCCUCAGAGCUCGAGAACAUCUUCGGAUGCAGAGGAGGCAGCCUUCGGUGGCGCGAUAGCGCCAACGUCCUCAACCUCCAAUGCAUCCCACCACAUGAUGAUGCCUGAAGAGCCUUGGUUUUUUG [C4A G52C],-2.41

# Reference: the RNAGym collection of RNA variant scans (doi:10.1073/pnas.2313332121)
